The target of experiment [1] is T1, CXC chemokine receptor 4 (CXCR4) (UniProt P61073 1-352, limits assumed).
T1 construct: whole, on cells; Endogenous receptor on CEM and THP-1 cells; also called SDF-1 receptor; fusin
Nature of the experiment: competition against 4 nM 125I-SDF-1 on CEM cells (FIG. 2B). On the procedure: SDF-1 and the indicated analogs (competing ligands, described in Examples) were added at the concentrations illustrated in the presence of 4 nM ¹²⁵I-SDF-1. CEM cells were assessed for ¹²⁵I-SDF-1 binding following 2 hr of incubation. The results are expressed as percentages of the maximal specific binding that was determined without competing ligand, and are the mean of three independent experiments.
A competitive dose response for binding to the SDF-1 receptor by native SDF-1 and the CXCR4 agonists against ¹²⁵I-SDF-1 is shown in FIGS. 2A and 2B respectively. A concentration-dependent inhibition of ¹²⁵I-SDF-1 is illustrated in FIG. 2A, indicating the affinity of SDF-1 for the receptor. […] SDF-1 and the indicated analogs (competing ligands) were added at the concentrations illustrated in the presence of 4 nM ¹²⁵I-SDF-1. CEM cells were assessed for ¹²⁵I-SDF-1 binding following 2 hr of incubation. The results are expressed as percentages of the maximal specific binding that was determined without competing ligand, and are the mean of three independent experiments. The inhibition of ¹²⁵I-SDF-1 by SDF-1 and the SDF-1 analogs is indicative of CXCR4 receptor binding. The compounds illustrated in the figure are as follows: SDF-1(1-14)-(G)₄-SDF-1(55-67)-K20/E24-cyclic amide (CTCE0021), SDF-1(1-14)-(G)₄-SDF-1(55-67)-E24/K28-cyclic amide (CTCE0022), SDF-1(1-9)₂-C9/C9-cysteine dimer (CTCE9901), SDF-1(1-17) (CTCE9902), SDF-1(1-8)₂-lysine bridge dimer (CTCE9904) and SDF-1(1-14)-(G)₄-SDF-1(55-67) amide (CTCE0017).

In experiment [2] the target is T1, CXC chemokine receptor 4 (CXCR4). The experiment is described as follows: cell-based or functional assay.

6 molecules from patent publication US20020165123A1 (published 2002) can be followed below.

Bridges are numbered along the chain shown (N, C = ends). Where no end group is shown, it is not given here.

T1 sequence (P61073 whole entry): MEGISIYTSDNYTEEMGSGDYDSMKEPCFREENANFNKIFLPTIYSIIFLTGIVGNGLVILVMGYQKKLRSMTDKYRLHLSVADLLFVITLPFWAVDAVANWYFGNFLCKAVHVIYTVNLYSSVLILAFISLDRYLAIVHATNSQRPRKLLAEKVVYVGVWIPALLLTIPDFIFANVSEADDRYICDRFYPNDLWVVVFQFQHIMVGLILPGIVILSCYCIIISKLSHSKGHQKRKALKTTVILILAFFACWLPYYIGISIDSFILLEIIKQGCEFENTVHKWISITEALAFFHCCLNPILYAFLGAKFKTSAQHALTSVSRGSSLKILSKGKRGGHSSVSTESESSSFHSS

B1: SDF-1(1-17) (peptide)
peptide: KPVSLSYRCPCRFFESH
notes: Linear peptide, free acid; also called CTCE9902
Take B1: the binding result in experiment [1] is “binds”.
On to KPVSLSYRCPCRFFGGGGLKWIQEYLEKALN-NH2 (lactam 20-24; cysteine pairing not given here) [SDF-1(1-14)-(G)4-SDF-1(55-67)-K20/E24-cyclic amide], for which the “EC50 of [Ca2+]i mobilization, fura-2,AM loaded THP-1 cells” value (“EC50 of [Ca2+]i mobilization” for short) in experiment [2] is 148 nM.

B2: SDF-1(1-8)2-lysine bridge dimer (peptide)
peptide: KPVSLSYRK-NH2
modifications: also: dimer: two chains' Arg8 amide-linked to one bridging lysine (alpha and epsilon amino groups)
notes: Two SDF-1(1-8) chains joined through one lysine amide; also called CTCE9904
In the case of B2, the binding result in experiment [1] is reported as “binds”.
In the case of KPVSLSYRCPCRFFGGGGLKWIQEYLEKALN-OH (cysteine pairing not given here) [SDF-1(1-14)-(G)4-SDF-1(55-67) acid], the “EC50 of [Ca2+]i mobilization” value in experiment [2] stood at 188 nM.

B3: SDF-1(1-9)2-C9/C9-cysteine dimer (peptide)
peptide: KPVSLSYRC
modifications: also: homodimer via disulphide between Cys9 of the two chains
notes: Homodimer of SDF-1(1-9), with free acid C-termini; also called CTCE9901
For the molecule B3, the binding result in experiment [1] is “binds”.
Consider KPVSLSYRCPCRFFGGGGLKWIQEYLEKALN-NH2 (lactam 24-28; cysteine pairing not given here) [SDF-1(1-14)-(G)4-SDF-1(55-67)-E24/K28-cyclic amide], for which the “EC50 of [Ca2+]i mobilization” value in experiment [2] came to 106 nM.
